Source: US20200131224A1, “Methods for Synthesis of Radionuclide Complex” (Advanced Accelerator Applications (Italy) S.R.L., priority 2018, published 2020)

Test: Radiochemical purity (RCP) of the Drug Substance 72 hours from end of synthesis
Type: physicochemical
Conditions: radiochemical purity 72 hours from end of synthesis; reaction time 5 min; reactor temperature 80 or 100 °C by batch
Method: The reaction temperature has been tested between 80° C. and 100° C. for labeling times of 5 minutes.

Compound	RCP (%) t72 h
C[C@@H](O)[C@H](NC(=O)[C@@H]1CSSC[C@H](NC(=O)[C@@H](Cc2ccccc2)NC(=O)CN2CCN(CC(=O)[O-])CCN(CC(=O)[O-])CCN(CC(=O)[O-])CC2)C(=O)N[C@@H](Cc2ccc(O)cc2)C(=O)N[C@H](Cc2c[nH]c3ccccc23)C(=O)N[C@@H](CCCCN)C(=O)N[C@@H]([C@@H](C)O)C(=O)N1)C(=O)O.[177Lu+3] [LT141013C-03, ^177Lu-DOTA0-Tyr^3-Octreotate]	95.8%
C[C@@H](O)[C@H](NC(=O)[C@@H]1CSSC[C@H](NC(=O)[C@@H](Cc2ccccc2)NC(=O)CN2CCN(CC(=O)[O-])CCN(CC(=O)[O-])CCN(CC(=O)[O-])CC2)C(=O)N[C@@H](Cc2ccc(O)cc2)C(=O)N[C@H](Cc2c[nH]c3ccccc23)C(=O)N[C@@H](CCCCN)C(=O)N[C@@H]([C@@H](C)O)C(=O)N1)C(=O)O.[177Lu+3] [LT141013B-03, ^177Lu-DOTA0-Tyr^3-Octreotate]	95.9%
